Data reported in patent US10538591B2, “Anti-fibulin-3 antibodies and uses thereof” (THE BRIGHAM AND WOMEN'S HOSPITAL, INC., priority 2014, dated 2020).

T1: purified human fibulin-3 (Homo sapiens, UniProt Q12805)
T1 construct: purchased ORIGENE
T1 sequence (Q12805 18-493): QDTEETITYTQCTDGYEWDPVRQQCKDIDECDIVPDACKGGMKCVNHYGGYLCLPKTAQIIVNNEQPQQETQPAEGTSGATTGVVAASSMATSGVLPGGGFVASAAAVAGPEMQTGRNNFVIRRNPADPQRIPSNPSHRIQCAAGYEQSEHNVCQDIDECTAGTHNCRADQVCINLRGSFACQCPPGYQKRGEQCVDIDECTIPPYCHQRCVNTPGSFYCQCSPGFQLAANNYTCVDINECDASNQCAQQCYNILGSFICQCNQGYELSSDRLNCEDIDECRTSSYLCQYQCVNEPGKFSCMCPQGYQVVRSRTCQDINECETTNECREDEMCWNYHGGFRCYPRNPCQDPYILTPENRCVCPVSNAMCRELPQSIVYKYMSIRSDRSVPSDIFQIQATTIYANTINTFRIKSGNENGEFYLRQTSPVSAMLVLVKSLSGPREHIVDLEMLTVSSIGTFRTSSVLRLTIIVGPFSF


Key:
[1] = tested on: U251MG glioma cells; test: Temozolomide combination viability assay in U251MG cells; format: cell-based, human; conditions: increasing concentrations, 72 h
Method: The antibody increased the cytotoxicity of TMZ by 30% in average.
Antibodies against fibulin-3 can potentiate the effect of a chemotherapeutic drug. Glioma cells (U251MG cell line) were cultured in presence of increasing doses of temozolomide, which is the standard-of-care drug for treatment of malignant glioma. The drug was combined with antibody vehicle (PBS) or with a fixed dose of anti-Fib3/911 antibody. Viability of the cells was analyzed after 72 h, which is a time period at which temozolomide has only a modest effect on glioma cells.

[2] = biological target: T1, purified human fibulin-3; test: Western blot and dot-blot detection of fibulin-3; format: binding; conditions: for detection of fibulin-3 by Western blotting: SDS-PAGE, reducing and/or non-reducing conditions
Method: CNSI glioma cells were transfected with fibulin-3 cDNA (fib3-OE cells) or a control plasmid (control cells) and cultured for 24 h in serum-free conditions. Conditioned medium was collected and probed by Western blotting with anti-Fib3/911 (911), anti-Fib3/912 (912), or their respective preimmune sera (antibodies and sera were used at 1/5000 dilution).
Two rabbit polyclonal antibodies were commissioned against the 23-amino acid peptide sequence of fibulin-3 involved in Notch activation. The peptide was minimally modified to facilitate the formation of a disulfide bridge necessary to form a conformational, tri-dimensional epitope (FIG. 4). Antibodies against fibulin-3 (“anti-Fib3/911” and “anti-Fib3/912”) were purified by affinity chromatography, aliquoted, and prepared in phosphate-buffered saline (PBS) solution for all subsequent tests.
Purified human fibulin-3 (200 ng/lane, ORIGENE) was subjected to SDS-PAGE in reducing and non-reducing conditions and probed with affinity-purified mAb428.3C11 (0.4 to 20 μg/ml, diluted in PBS from a 2 mg/ml stock).
Concentrated, serum-free culture medium from HEK293 cells (1 mg/ml total protein) was probed with anti-human IgG secondary antibody (HRP conjugate) to detect the chains of antibody in reducing and non-reducing conditions. C) Concentrated medium from HEK293 cells (1 mg/ml total protein) was directly used to probe purified human fibulin-3 (resolved by SDS-PAGE in non-reducing conditions).

[3] = tested on: U251 glioblastoma cells
Method: In FIG. 27C, U251 glioblastoma cells (5,000 cells/well) were incubated in conditioned medium from control-HEK293 or scFv-expressing HEK293 (1.5 mg/ml total protein). After 48 h cell viability was measured using the CellTiter-Glo kit to measure ATP production (PROMEGA cat #G7572).

Molecule | cytotoxic effect of TMZ alone [1] | detection of fibulin-3 by Western blotting [2] | cytotoxicity of culture media with scFv [3] | detection of native fibulin-3 by dot-blotting ([2]; non-reduced fibulin-3 on nitrocellulose, scFv428.2 medium 1 mg/ml, mAb428.2 1 μg/ml)
Cn1nnc2c(C(N)=O)ncn2c1=O [TMZ, temozolomide] | modest, dose-dependent cytoxic effect |  |  | 
chimeric mouse/human mAb428.2: recombinant chimeric antibody with VL and VH of mAb428.2; light chain SEQ ID NO: 23, heavy chain SEQ ID NO: 24 (antibody) heavy: MYRMQLLSCIALSLALVTNSEVQLVEQIQLVQSGPELKKPGETVKISCKASGYSFTTYGMSWVKQAPGKGLKWMGWINTHSGVPTYADDFKGRFAFFLETSASTAYLQINNLKNEDTATYFCARWVDYWGQGTTLTVSSGTLVTVSSASTKGPSVFPLAPSSKSTSGGTAALGCLVKDYFPEPVTVSWNSGALTSGVHTFPAVLQSSGLYSLSSVVTVPSSSLGTQTYICNVNHKPSNTKVDKKVEPKSCDKTHTCPPCPAPELLGGPSVFIFPPKPKDVLTITLTPKVTCVVVDISKDDPEVQFSWFVDDVEVHTAQTQPREEQFNSTFRSVSELPIMHQDWLNGKEFKCRVNSAAFPAPIEKTISKTKGRPKAPQVYTIPPPKEQMAKDKVSLTCMITDFFPEDITVEWQWNGQPAENYKNTQPIMDTDGSYFVYSKLNVQKSNWEAGNTFTCSVLHEGLHNHHTEKSLSHSPGK light: MQLLSCIALSLALVTNSDIQMTQSPSSLSASVGDRVTITCRASQSVSSADIKMTQSPSSMYASLGERVTITCKASQDIKSYLSWHQQKPWKSPKTLIYYATSLADGVPSRFSGSGSGQDYSLTISSLESDDTATYYCLQHGKSPYTFGGGTKLEIKGTKVEIKRTVAAPSVFIFPPSDSQLKSGTASVVCLLNNFYPREAKVQWKVDNALQSGNSQESVTEQDSKDSTYSLSSTLTLSKADYEKHKVYACEVTHQGLSSPVTKSFNRGEC |  | detects the same pattern of bands as purified mouse mAb428.2 |  | 
scFv428.2: single-chain variable fragment derived from mAb428.2, VL-(G4S)3-VH with Myc and 6xHis tags; SEQ ID NOS: 25, 26 (protein) scFv: DDIKMTQSPSSMYASLGERVTITCKASQDIKSYLSWHQQKPWKSPKTLIYYATSLADGVPSRFSGSGSGQDYSLTISSLESDDTATYYCLQHGKSPYTFGGGTKLEIKGGGGSGGGGSGGGGSQIQLVQSGPELKKPGETVKISCKASGYSFTTYGMSWVKQAPGKGLKWMGWINTYSGVPTYADDFKGRFAFFLETSASTAYLQINNLKNEDTATYFCARWVDYWGQGTTLTVSSEQKLISEEDLNMHTGHHHHHH |  | can detect denatured fibulin in reducing and non-reducing conditions | induce cytotoxicity in glioblastoma cells | able to detect native fibulin-3 by dot-blotting
